No end group written: not given here.
Experiments:
[1] = biological target: T1, MRP3-derived peptide IV (PepIV) (human, also: conjugated to BSA, biotinylated, site not given here); assay: ELISA, plate coated with MRP3-derived peptides conjugated with BSA, purified scFv, HRP anti-His detection
T1 construct: Same peptide used as BSA conjugate (ELISA) and as biotinylated peptide (SPR)
T1 peptide: KIRSPQSFFDTTPSGRI
Protocol: (§1) A 96-well plate was coated with 10 μg/ml of specific MRP3-derived peptides conjugated with BSA as antigen and BSA and other appropriate control antigens. The rest of the protocol was as described above except that the purified scFv antibodies were added in serial dilution to the wells, and the secondary Ab used was HRP-conjugated anti-His antibody at 1:5000 dilution (Invitrogen, Carlsbad, Calif.). To check for cross-reactivity of the recombinant scFvs, the ELISA plate was coated with different peptide antigens (i.e., PepI, PepII, PepIII, PepIV) derived from MRP3, conjugated to BSA with other controls. ScFv antibodies were then added at a 10 μg/ml concentration to each well.

[2] = biological target: T2, MRP3-derived peptide III (PepIII) (human, also: conjugated to BSA, biotinylated, site not given here); assay: as above
T2 construct: Same peptide used as BSA conjugate (ELISA) and as biotinylated peptide (SPR)
T2 peptide: DAMADSRQNNTSLRL
Protocol: as §1

[3] = biological target: T3, MRP3-derived peptide I (PepI) (human, conjugated to BSA in the ELISA; biotinylated in BIAcore and on streptavidin beads (site of attachment not stated)); assay: as above
T3 construct: Same peptide used as BSA conjugate (ELISA) and as biotinylated peptide (SPR on SA chip, bead assay); also called PepI antigen
T3 peptide: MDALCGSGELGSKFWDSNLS
Protocol: as §1

[4] = biological target: T4, MRP3-derived peptide II (PepII) (human, also: conjugated to BSA, biotinylated, site not given here); assay: SPR, BIAcore 3000, biotinylated peptide on SA chip, scFv in flow
T4 construct: Same peptide used as BSA conjugate (ELISA) and as biotinylated peptide (SPR on SA chip, bead assay); also called PepII antigen
T4 peptide: VHTENPDLTPCF
Protocol: (§2) Kinetic measurements of purified recombinant scFv were made by surface plasmon resonance using a BIAcore 3000 Biosensor (BIAcore, Piscataway, N.J.). Chips were functionalized with biotinylated peptides derived from MRP3 protein by using HEPES balanced salt solution (HBSS buffer), 10 mM HEPES pH 7.4, 150 mM NaCl, 3.4 mM EDTA, and 0.05% BIAcore surfactant P20. The scFv antibodies were diluted in HBSS buffer and passed over the SA chip at concentrations of 25, 200, and 1000 nM. The flow rate was kept at 30 μl/min, and the injection time was 3 min. Binding constants were calculated from the nonlinear fitting curve by using the BlAevaluation software (BIAcore).

[5] = biological target: T4, MRP3-derived peptide II (PepII); assay: SPR, BIAcore 3000, KA=kassoc/kdiss
Protocol: as §2
(§3) The association and dissociation rates from the sensograms were in the same range for PepI-58 scFv, PepI-25 scFv, and PepII-89 scFv. […] The final binding affinity was determined by the software developed by BIAcore based on the kinetics calculated among various concentrations of antibody. PepI-25 scFv had kassoc=1.3×10⁵ (mol/L-s)⁻¹, kdiss=2.8×10⁻³ s⁻¹, and KA=kassoc/kdiss, was 4.6×10⁷ (mol/L)⁻¹.

[6] = biological target: T1, MRP3-derived peptide IV (PepIV); assay: ELISA, peptide-BSA coated, purified scFv, anti-His-HRP
Protocol: as §1

[7] = biological target: T4, MRP3-derived peptide II (PepII); assay: as above
Protocol: as §1

[8] = biological target: T3, MRP3-derived peptide I (PepI); assay: as above
Protocol: as §1

[9] = biological target: T5, human multidrug resistance protein 3 (MRP3) (human, UniProt O15438 1-1527); assay: indirect flow cytometry on MRP3-expressing glioma cells
T5 construct: whole, on cells; ABC transporter; endogenous on human malignant glioma cell lines D54MG, D247MG and pediatric GBM line D2159; also called cell-surface-expressed MRP3; native MRP3
Protocol: To determine that the purified anti-MRP3 scFvs bind native MRP3 expressed on the surface of tumor cells, indirect fluorescence-activated cell sorting (FACS) was performed using MRP3-expressing D54MG and D247MG cells under both permeabilized and nonpermeabilized conditions. Indirect FACS analysis of MRP3 expression on the surface of viable malignant pediatric GBM cell line D2159 growing as neuroshperes was also performed.
For cytometric analysis of PepI-58, PepI-25, PepII-89, PepIII-23, and PepIV-17 scFv antibodies, D54MG and D247MG cells (1×10⁶/test) were harvested with 0.02% EDTA/PBS and fixed by resuspending them in 2-4 ml of 10% formaldehyde. After washing, the cells were blocked with 10% normal goat serum (NGS) with and without saponin for 20 min. Saponin was added to facilitate the permeabilization for examining all […] receptors. Cells were washed twice and incubated with anti-his (C-terminus)-FITC conjugated antibody (1:5000, Invitrogen, Carlsbad, Calif.) for an hour at room temperature. Finally, cells were suspended in 0.5% PFA/BSA and freshly analyzed by using a Becton Dickinson FACSort with CellQuest software (Becton Dickinson, San Jose, Calif.).

[10] = biological target: T2, MRP3-derived peptide III (PepIII); assay: SPR, BIAcore, biotinylated peptide on chip
[11] = biological target: T2, MRP3-derived peptide III (PepIII); assay: ELISA, peptide-BSA coated, purified scFv, anti-His-HRP
Protocol: as §1

[12] = biological target: T3, MRP3-derived peptide I (PepI); assay: SPR, BIAcore 3000, KA=kassoc/kdiss
Protocol: as §2, §3

[13] = biological target: T3, MRP3-derived peptide I (PepI); assay: SPR, BIAcore 3000, biotinylated pep-I on SA chip, scFv 25 to 1000 nM
Protocol: as §2, §3

[14] = biological target: T5, human multidrug resistance protein 3 …; assay: indirect flow cytometry on viable D2159 cells (surface), anti-His-FITC detection
[15] = biological target: T4, MRP3-derived peptide II (PepII); assay: ELISA, plate coated with MRP3-derived peptides conjugated with BSA, purified scFv, HRP anti-His detection
Protocol: as §1

[16] = biological target: T3, MRP3-derived peptide I (PepI); assay: SPR, BIAcore 3000, biotinylated peptide on SA chip, scFv in flow
Protocol: as §2

Row | binding result [1] | binding result [2] | binding result [6] | binding result [7] | Ka [12] [M⁻¹] | Binder | binding result [14] | further results
1 | no binding (tested: 10 ug/ml) | no binding (tested: 10 ug/ml) |  |  |  | PepII-89 scFv (scFv, also called anti-MRP3 PepII-89scFv; not shown: Myc and hexahistidine tags from the pET 22(+) vector, at the C terminus) scFv: QVQLVQSGGGVVQPGRSLRLSCAASGFTFSSYGMHWVRQDPGKGLMWVSSISTDGSATKYADSVKGRFTISRDNAKNTVSLQMNSLRAEDTAVYYCVGGFLGWWGQGTLVTVSSGGGGSGGGGSGGGGSEIVLTQSPATLSLSPGERATLSCRASQSVGGSYLAWYQQKPGQAPRLLIYGASRRATGIPARFSGSGSGTDFTLTISSLQPEDFASYFCQQTNTFPLTFGGGTKVEIKRTVAAPTAAA |  | binding result [3]: no binding (tested: 10 ug/ml); koff [4]: 0.005 s⁻¹; Ka [5]: 1e+07 M⁻¹
2 |  |  | no binding (tested: 10 µg/ml) | no binding (tested: 10 µg/ml) |  | PepIII-23 scFv (scFv, not shown: Myc and hexahistidine tags from the pET 22(+) vector) scFv: EVQLVQSGGGLVKPGGSLRLSCAASGFSFNNYAGSWVRQAPGKGLEWISALSSGGDTTYYADSVAGRFAISRDNSKNTLYLQMHSLRAEDTAIYYCAQDPVVGAPGYFGLWGRGTLVTVSSGGGGSGGGGSGGGGSQSVLTQPPSASGSSGQSVTISCTGTSSDIGGYNYVSWYQQHPGKAPKLMIYEVSKRPSGVSDRFSGSKSGSTASLHISGLQAEDEADYYCSSYSSNNAPYVFGSGTKVAVLGQPKAAPS |  | binding result [8]: no binding (tested: 10 µg/ml); binding result [9]: no binding; binding result [10]: binds
3 |  |  | no binding (tested: 10 µg/ml) | no binding (tested: 10 µg/ml) | 4.6e+07 | PepI-25 scFv (scFv, not shown: Myc and hexahistidine tags from the pET 22(+) vector) scFv: EVQLVESGGGLVQPGGSLRLSCAASGFTFSNYAMTWVRQAPGKGLEWVSAISGSGGSTYYADSVKGRFTISRDNSKNTLYLQMNSLRAEDTAVYYCATGDLDYWGQGTTVTVSSGGGGSGGGGSGGGGSQTVVTQEPSLTVSPGGTVTLTCASSTGAVTSGYYPNWFQQKPGQAPRALIYSTSNKHSWTPARFSGSLLGGKAALTLSGVQPEDEAEYYCLLYYGGAQPYVVFGGGTKVTVLGQPKAAPS | binds | binding result [11]: no binding (tested: 10 µg/ml); koff [13]: 0.0028 s⁻¹
4 | no binding (tested: 10 ug/ml) | no binding (tested: 10 ug/ml) |  |  | 2.1e+07 | PepI-58 scFv (scFv, also called anti-MRP3 PepI-58scFv; not shown: Myc and hexahistidine tags from the pET 22(+) vector, at the C terminus) scFv: EVQLVQSGGGLVQPGGSLRLSCSASGFTFSNYAMHWVRRAPGKGLEYVSAISSNGGSTYYADSVKGRFTISRDNPKNTLYLQMNSLRAEDTAVYYCVRGRPYPLDVWGKGTLVTVSSGGGGSGGGGSGGGGSQSVLTQPPSASGTPGQRVTISCSGSSSNIESHAVNWYQHLPGSAPKLLIYFNNHRPSGVPERFSASKSGTSASLAISGLQSEDEADYYCAAWDDSLNGPVFGGGTKLTVLGQPKAAPS | binds | binding result [15]: no binding (tested: 10 ug/ml); koff [16]: 0.0034 s⁻¹

— patent US20100290984A1 (DUKE UNIVERSITY, published 2010)
